How the values were obtained:
Gaa knockout mice = assay: Muscle physiology and morphology in Gaa-knockout mice (LAMP1, PAS, vacuoles); format: in vivo, mouse
Description: Control mice were treated with vehicle alone. Soleus, quadriceps and diaphragm tissue is harvested two weeks after the last dose of recombinant human acid α-glucosidase. […] Semi-thin sections of quadriceps muscle embedded in epoxy resin (Epon) were stained with methylene blue and observed by […] (1000×) to determine the extent of the presence of vacuoles. Quadriceps muscle samples were analyzed immunohistochemically to determine levels of the autophagy markers microtubule-associated protein 1A/1B-light chain 3 phosphatidylethanolamine conjugate (LC3A II) and p62, the insulin-dependent glucose transporter GLUT4 and the insulin-independent glucose transporter GLUT1. […] Control mice were treated with vehicle alone. Cardiac muscle tissue was harvested two weeks after the last dose of recombinant human acid α-glucosidase and analyzed for glycogen levels, by staining with periodic acid—Schiff reagent (PAS), and for lysosome proliferation, by measuring levels of LAMPI.

[1] = test system: normal and Pompe fibroblast cell lines; assay: Cellular uptake of rhGAA in normal and Pompe fibroblast cell lines; format: cell-based
Description: The relative cellular uptake of ATB200 and Lumizyme® rhGAA were compared using normal and Pompe fibroblast cell lines. […] After 16-hr incubation, external rhGAA was inactivated with TRIS base and cells were washed 3-times with PBS prior to harvest. Internalized GAA measured by 4MU-α-Glucoside hydrolysis and was graphed relative to total cellular protein and the results appear in FIGS. 11A-B.

[2] = Flocculation in human plasma; design: key to Plasma Macro (precipitation/coagulation score) / Plasma Micro (precipitation/coagulation score) / Plasma Pellet (score): 0=negative; 1=very slight precipitation or pellet; 2=minimal precipitation or pellet; 3=moderate precipitation or pellet; 4=significant precipitation or pellet
Description: Test article dosing solutions (3 concentrations) and the placebo (3 concentrations) were mixed with equal volumes of human plasma and serum from a donor. […] The placebo was the same as the test article except there was no ATB200 rhGAA.
One ml of each dose of test article or placebo, was mixed with an equal volume of plasma, serum and saline. Samples were incubated for 30 minutes at room temperature. After incubation the tubes were examined macroscopically and microscopically for precipitation or coagulation. An aliquot from each tube was centrifuged at 14,000 rpm in a microcentrifuge for 10 minutes. Each tube was examined for the presence or absence of a pellet. Precipitation/coagulation and pellets were scored as follows: • 0=negative • 1=very slight precipitation or pellet • 2=minimal precipitation or pellet • 3=moderate precipitation or pellet • 4=significant precipitation or pellet

CIMPR = CIMPR (Homo sapiens, UniProt P11717); assay: CIMPR plate binding assay
Chain of CIMPR (P11717 41-2491, species assumed): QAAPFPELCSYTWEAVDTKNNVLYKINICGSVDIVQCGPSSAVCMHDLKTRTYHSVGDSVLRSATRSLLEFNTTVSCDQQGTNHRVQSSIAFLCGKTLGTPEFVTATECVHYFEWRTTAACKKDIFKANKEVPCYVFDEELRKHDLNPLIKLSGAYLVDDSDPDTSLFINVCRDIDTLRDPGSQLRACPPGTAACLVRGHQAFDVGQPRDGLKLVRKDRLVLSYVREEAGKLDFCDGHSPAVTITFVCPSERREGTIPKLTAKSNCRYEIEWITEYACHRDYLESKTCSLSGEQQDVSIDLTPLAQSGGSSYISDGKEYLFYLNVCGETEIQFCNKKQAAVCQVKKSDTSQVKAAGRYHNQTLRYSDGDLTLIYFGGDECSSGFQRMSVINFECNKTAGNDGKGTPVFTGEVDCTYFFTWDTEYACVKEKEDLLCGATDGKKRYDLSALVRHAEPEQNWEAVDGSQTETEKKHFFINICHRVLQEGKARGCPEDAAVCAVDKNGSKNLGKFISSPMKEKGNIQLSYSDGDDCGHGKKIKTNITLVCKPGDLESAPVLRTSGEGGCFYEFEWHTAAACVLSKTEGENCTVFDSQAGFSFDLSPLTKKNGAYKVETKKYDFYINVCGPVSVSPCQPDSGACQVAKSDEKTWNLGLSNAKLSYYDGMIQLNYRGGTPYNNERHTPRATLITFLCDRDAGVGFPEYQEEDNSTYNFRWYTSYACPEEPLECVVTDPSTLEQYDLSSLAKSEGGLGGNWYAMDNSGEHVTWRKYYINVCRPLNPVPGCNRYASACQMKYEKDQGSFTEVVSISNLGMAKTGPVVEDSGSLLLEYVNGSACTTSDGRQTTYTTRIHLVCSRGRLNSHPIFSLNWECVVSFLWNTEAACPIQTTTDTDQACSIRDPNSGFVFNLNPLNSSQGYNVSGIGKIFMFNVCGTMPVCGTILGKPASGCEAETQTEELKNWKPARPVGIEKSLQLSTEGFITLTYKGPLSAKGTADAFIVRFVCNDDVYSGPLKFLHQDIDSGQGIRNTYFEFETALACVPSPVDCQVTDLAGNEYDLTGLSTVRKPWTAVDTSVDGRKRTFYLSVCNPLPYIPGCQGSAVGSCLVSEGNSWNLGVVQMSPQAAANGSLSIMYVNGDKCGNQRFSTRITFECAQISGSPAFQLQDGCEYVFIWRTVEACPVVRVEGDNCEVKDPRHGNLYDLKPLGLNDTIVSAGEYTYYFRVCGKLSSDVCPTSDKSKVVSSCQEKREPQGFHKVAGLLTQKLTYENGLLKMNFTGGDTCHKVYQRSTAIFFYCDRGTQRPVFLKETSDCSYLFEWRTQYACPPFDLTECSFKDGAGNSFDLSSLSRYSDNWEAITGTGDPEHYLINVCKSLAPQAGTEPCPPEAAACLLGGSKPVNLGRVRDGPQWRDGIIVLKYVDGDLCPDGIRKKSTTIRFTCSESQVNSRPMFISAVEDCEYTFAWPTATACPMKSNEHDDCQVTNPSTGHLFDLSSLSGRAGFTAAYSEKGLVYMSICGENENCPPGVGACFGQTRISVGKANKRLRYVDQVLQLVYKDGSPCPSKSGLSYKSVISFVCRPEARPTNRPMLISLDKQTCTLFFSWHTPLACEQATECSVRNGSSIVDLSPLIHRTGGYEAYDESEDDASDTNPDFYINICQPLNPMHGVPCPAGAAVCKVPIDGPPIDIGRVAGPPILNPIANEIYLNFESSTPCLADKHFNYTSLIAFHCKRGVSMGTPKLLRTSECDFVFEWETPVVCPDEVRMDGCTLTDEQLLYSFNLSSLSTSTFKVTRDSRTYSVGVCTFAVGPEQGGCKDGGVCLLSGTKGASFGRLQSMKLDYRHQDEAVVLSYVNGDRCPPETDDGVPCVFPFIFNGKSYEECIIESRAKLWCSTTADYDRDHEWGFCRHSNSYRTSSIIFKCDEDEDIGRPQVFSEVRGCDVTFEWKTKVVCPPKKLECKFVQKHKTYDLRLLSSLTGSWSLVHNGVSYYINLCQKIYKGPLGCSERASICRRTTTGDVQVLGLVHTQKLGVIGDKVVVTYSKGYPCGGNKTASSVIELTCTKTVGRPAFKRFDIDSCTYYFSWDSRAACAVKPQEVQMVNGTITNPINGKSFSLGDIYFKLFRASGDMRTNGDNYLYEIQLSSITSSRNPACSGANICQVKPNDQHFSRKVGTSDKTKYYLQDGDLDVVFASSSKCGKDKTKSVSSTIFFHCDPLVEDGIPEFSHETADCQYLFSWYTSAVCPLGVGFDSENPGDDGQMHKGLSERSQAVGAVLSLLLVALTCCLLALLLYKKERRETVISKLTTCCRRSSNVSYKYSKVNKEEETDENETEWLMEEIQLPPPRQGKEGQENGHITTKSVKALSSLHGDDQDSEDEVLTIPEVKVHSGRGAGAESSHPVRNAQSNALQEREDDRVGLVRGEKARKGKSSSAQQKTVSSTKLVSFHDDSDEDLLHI
Description: In addition to having a greater percentage of rhGAA that can bind to the CIMPR, it is important to understand the quality of that interaction. […] Briefly, CIMPR-coated plates were used to capture GAA. Varying concentrations of rhGAA were applied to the immobilized receptor and unbound rhGAA was washed off. The amount of remaining rhGAA was determined by GAA activity.

Substance: ATB200: recombinant human acid α-glucosidase expressed in CHO cells with increased content of M6P-bearing N-glycans
- lysosome proliferation (LAMP1) (Gaa knockout mice; 20 mg/kg every other week, heart, diaphragm, soleus): reduction in lysosome proliferation in heart, diaphragm and skeletal muscle (soleus) tissue compared to conventional treatment with alglucosidase alfa
- punctate glycogen levels (PAS) (Gaa knockout mice; 20 mg/kg every other week, heart, soleus): reduction in punctate glycogen levels in heart and skeletal muscle (soleus) tissue compared to conventional treatment with alglucosidase alfa
- number of vacuoles in muscle fiber in quadriceps (Gaa knockout mice; 20 mg/kg, two IV bolus administrations): significantly reduced the number of vacuoles in muscle fiber in the quadriceps of Gaa knockout mice
- concentration that saturates cellular receptors ([1]; 16-hr incubation): about 20 nM
- internalization into normal and Pompe fibroblast cells ([1]; versus Lumizyme): internalized to a greater degree than conventional Lumizyme® rhGAA
- Plasma Macro (precipitation/coagulation score) ([2]; Final concentration 300 μg/mL): 0
- Plasma Micro (precipitation/coagulation score) ([2]; Final concentration 300 μg/mL): 0
- Plasma Pellet (score) ([2]; Final concentration 300 μg/mL): 0
- Plasma Macro (precipitation/coagulation score) ([2]; Final concentration 600 μg/mL): 0
- Plasma Micro (precipitation/coagulation score) ([2]; Final concentration 600 μg/mL): 0
- Plasma Pellet (score) ([2]; Final concentration 600 μg/mL): 0
- Plasma Macro (precipitation/coagulation score) ([2]; Final concentration 1000 μg/mL): 0
- Plasma Micro (precipitation/coagulation score) ([2]; Final concentration 1000 μg/mL): 0
- Plasma Pellet (score) ([2]; Final concentration 1000 μg/mL): 0
- pellet after centrifugation ([2]; human plasma, 14,000 rpm 10 minutes): no pellets were observed
- precipitation, macroscopic and microscopic ([2]; human plasma, each ATB200 concentration, 30 minutes at room temperature): No precipitation was observed macroscopically or microscopically
- Kd (CIMPR; binding to CIMPR, M6P receptor plate binding assays): 2 to 4 nM
- binding to CIMPR (CIMPR; versus Lumizyme, FIG. 10A): bound to CIMPR significantly better than Lumizyme®

— patent US10512676B2, “Formulations comprising recombinant acid alpha-glucosidase” (Amicus Therapeutics, Inc., priority 2016, dated 2019)
